Results: publication PMC10200060, “Inhibition of DAMP actions in the tumoral microenvironment using lactoferrin-glycyrrhizin conjugate for glioblastoma therapy” (Biomaterials Research, 2023)

T1: human recombinant HMGB1 protein (Homo sapiens, UniProt P09429)
T1 construct: purchased Abcam
T1 sequence (P09429 1-215): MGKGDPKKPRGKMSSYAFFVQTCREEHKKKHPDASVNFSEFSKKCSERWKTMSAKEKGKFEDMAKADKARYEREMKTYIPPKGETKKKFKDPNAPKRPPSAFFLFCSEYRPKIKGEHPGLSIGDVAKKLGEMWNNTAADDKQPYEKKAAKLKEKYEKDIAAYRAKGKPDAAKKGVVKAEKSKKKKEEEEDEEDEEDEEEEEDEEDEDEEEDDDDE


Legend:
[1] = tested on: orthotopic GBM (U87MG) mice model; experiment: Nissl staining: GBM/normal brain ratio; type: in vivo, Balb/c nude mice; settings: daily i.v. GL equivalent 50 mg kg^−1, 14 days (control 37.5 ± 2.3)
From the text: (§1) After two weeks, mice were sacrificed, and the brains were harvested and fixed with paraformaldehyde (4%). Then, tissue processing was automatically conducted using a Leica TP1020 semi-enclosed Benchtop Tissue Processor (Leica Biosystems, Wetzlar, Hesse, Germany), followed by embedding in paraffin blocks. Paraffin blocks were sliced into 5 μm thick slices using a Leica RM2145 Microtome (Leica Biosystems). Nissl staining was used to stain brain tissue slides with pre-warmed 0.1% Cresyl Violet Stain Solution (Abcam). TUNEL assays were conducted following the manufacturer’s instructions. For immunofluorescence staining; anti-HMGB1 antibody (Abcam), anti-Ki67 antibody (Abcam), anti-CD31 antibody (Abcam), and anti-VEGF antibody (Abcam) were used as primary antibodies, and goat anti-rabbit IgG-H&L Alexa Fluor 488 and goat anti-rabbit IgG H&L Alexa Fluor 647 were used as secondary antibodies, followed by DAPI mounting.

HUVEC = HUVEC co-cultured with U87MG: CCK-8 at basal chamber; type: cell-based, human; settings: HUVEC/U87MG Transwell co-culture, 100 μM GL equivalent, 24 h
Protocol: (§2) To evaluate the inhibitory effect of Lf-GL on neovascularization in the tumor microenvironment in vitro, U87MG cells were seeded in the Transwell® insert chambers that were 6.5 mm in diameter and had 0.4 μm pore sizes (seeding density: 2.5 × 10^4 cells per well, Corning). HUVECs were seeded in the Transwell basal chamber (seeding density: 5.0 × 10^4 cells per well). GL, Lf, or Lf-GL (100 × 10^–6 M of GL equivalent concentration) were added to the insert chamber, and cells were incubated for 24 h. CCK-8 assay and HMGB1 ELISA were conducted at the basal chamber.

[2] = tested on: orthotopic GBM (U87MG) mice model; experiment: Survival in orthotopic GBM mouse model; type: in vivo, Balb/c nude mice; settings: i.v. GL equivalent 50 mg kg^−1 (Lf 5 mg kg^−1)
Protocol: To establish the orthotopic GBM mice model, GBM cells (U87MG, inoculation density: 1.0 × 10^6 cells per 10 μL) were stereotactically injected into the right striatum of Balb/c nude mice. Then, mice were randomly divided into four groups (n = 5): control, GL, Lf, and Lf-GL treated group. […] After four weeks, mice were sacrificed, and organs were harvested and fixed with 4% paraformaldehyde for further analysis.

[3] = target: T1, human recombinant HMGB1 protein; experiment: SPR binding affinity against HMGB1; settings: SPR, HMGB1 immobilized
Protocol: To confirm the binding affinity of Lf-GL to HMGB1, Surface Plasmon Resonance (SPR) was conducted at WoojungBSC (Korea). The Reichert SR7500DC system (Reichert technologies, NA, USA) and Scrubber2 software (Biologic software, FRA) were used, and a CMDH chip (Cat #: 13,206,066, Reichert technologies) was used for immobilization of the human recombinant HMGB1 protein (Abcam). HMGB1 protein was used as a ligand, and the analytes were HMGB1 antibody (Abcam), GL, Lf and Lf-GL conjugate. The immobilization buffer was S.A. (10 × 10^–3 M, pH 4.5), and the running buffer was PBS (pH 7.4). The flow rate of the analyte was 30 μL min^−1. The association and dissociation time were 3 min each, and measurements were conducted at room temperature. Results are expressed in response units (RU) over time.
Fig. S5. Binding affinity against HMGB1. Surface Plasmon Resonance (SPR) was conducted at WoojungBSC (Korea). The Reichert SR7500DC system (Reichert technologies, NA, USA) and Scrubber2 software(Biologic software, FRA) were used and the CMDH chip (Cat #: 13206066, Reichert technologies) was used for immobilization of the human recombinant HMGB1 protein (Abcam). HMGB1 protein was used as ligand and analytes were HMGB1 antibody (Abcam), GL, Lf and Lf-GL conjugate. Immobilization buffer was 10 mM S.A. (pH 4.5) and running buffer was 1× PBS. The flow rate of the analyte was 30 μL min^-1. The association and dissociation time were 3 min each and conducted at room temperature. Results are expressed in response units (RU) over time.

HMGB1 [4] = experiment: Immunofluorescence staining of HMGB1 in GBM tissue; type: in vivo, Balb/c nude mice; settings: GBM mice, daily i.v. GL equivalent 50 mg kg^−1, 14 days (control 15.3 ± 1.7)
From the text: as §1

HMGB1 [5] = experiment: HUVEC co-cultured with U87MG: HMGB1 ELISA; type: cell-based, human; settings: HUVEC/U87MG co-culture, 100 μM GL equivalent, 24 h (control 217.8 ± 5.9)
Protocol: as §2

CD31 = experiment: Immunofluorescence staining of CD31 in GBM tissue; type: in vivo, Balb/c nude mice; settings: GBM mice, daily i.v., 14 days (control MFI 14.7 ± 1.4)
From the text: as §1

HMGB1 [6] = experiment: HMGB1 ELISA of U87MG culture medium; type: cell-based, human; settings: 50 μM GL equivalent, 48 h (control 131.8 ± 11.4)
Protocol: U87MG cells were seeded in 100 mm-cell culture dishes (2.2 × 10^6 cells per dish) and treated with GL, Lf, or Lf-GL (50 × 10^–6 M GL equivalent concentration) for 48 h. After incubating, cells were collected using a cell scrapper and were centrifuged for 3 min at 150 × g. Supernatant was collected as cell culture medium, and pellets were washed with cold PBS twice and transferred into a microcentrifuge tube. Tubes were centrifuged, and then pellets were resuspended in 500 μL 1X hypotonic buffer and incubated on ice. Then, 25 μL of NP40 was added and the mixture was agitated using a vortex mixer at the highest setting. Homogenates were centrifuged for 10 min at 842 × g at 4℃. Supernatant was collected as the cytoplasmic fraction, and pellets were resuspended in cell extraction buffer (50 μL) and were incubated for 30 min on ice with vortexing at 10 min intervals. Then, homogenates were centrifuged for 30 min at 14,000 × g at 4℃. Supernatant was collected as the nuclear fraction. The amount of HMGB1 in the samples was measured using a HMGB1 ELISA kit (Abbkine), and absorbance was measured at 450 nm in a micro-plate reader. A DNA assay (Quant-iT™ dsDNA Assay Kit, Invitrogen) was also conducted to express HMGB1 concentrations in equivalent amounts of DNA.

[7] = tested on: U87MG human glioma cell line; experiment: Cell viability test (CCK-8) in U87MG; type: cell-based; settings: 50 μM GL equivalent, after 48 h treatment
Protocol: Cell viability was determined using a cell counting kit-8 (CCK-8). U87MG and HUVECs (seeding density: 0.75 × 10^4 cells per well) in 96-well culture plates were treated with GL, Lf, or Lf-GL (25 to 200 × 10^–6 M of GL equivalent concentration) and were incubated for different periods of time (24, 48, and 72 h). After washing with PBS, they were treated with a cell culture medium containing a CCK-8 assay kit (Abbkine) and were incubated at 37 °C and 5% CO2 for 2 h. Then, absorbance was measured at 450 nm in a micro-plate reader (VLBL00D0, Thermo Fisher Scientific). Results were quantified using Sigma Plot (Systat Software, USA). To determine the effect of extracellular HMGB1 in GBM and endothelial cell proliferation, U87MG and HUVECs were seeded in 96-well culture plates (seeding density: 0.75 × 10^4 cells per well) and GL, Lf, or Lf-GL (50 × 10^–6 M GL equivalent concentration) were added to cells with or without HMGB1 protein (U87MG: 0.1 μg mL^−1, and HUVEC: 1 μg mL^−1). Cells were incubated for different periods of time (24, 48, and 72 h).

[8] = tested on: orthotopic GBM (U87MG) mice model; experiment: TUNEL assay of GBM tissue; type: in vivo, Balb/c nude mice; settings: daily i.v., 14 days (control 28.5 ± 4.8)
From the text: as §1

U87MG cells = experiment: Cellular uptake of FITC-tagged Lf-GL (flow cytometry); type: cell-based, human; settings: 2 h incubation, Lf pre-treatment 500 nM
Protocol: To verify cellular uptake of Lf-GL, U87MG cells (seeding density: 2.5 × 10^4 cells per well) in an 8 well Nunc™ Lab-Tek II chambered coverglass (Thermo Scientific) were treated with FITC-tagged Lf-GL (1 × 10^–6 M) for different time periods (0 to 18 h). After washing with PBS, cells were treated with lysotracker (75 × 10^–9 M) and incubated for 2 h. Then, cells were fixed with 4% paraformaldehyde followed by DAPI mounting. Confocal laser scanning microscopy (SP8 X, Leica, Germany) was used to observe intracellular fluorescence, and images were processed using LAS X software (Leica).
Fig. S11. Significant cellular uptake of Lf-GL in U87MG. (a) Flow cytometry to evaluate cellular uptake of FITC tagged-Lf-GL (1 µM) in U87MG for 2,6, and 18 h. The 2 h pre-treatment of Lf and Pitstop® were treated in the concentration of 500 nM and 75 nM, respectively. (b) Quantification of cellular uptake for 18 h. Data were expressed as mean ± S.E.M (n=2).

| Molecule | GBM/normal brain ratio [1] | Reduction of endothelial cell proliferation (HUVEC) | Mice survived up to 28 days [2] | Additional days of survival versus PBS control ([2]; 28 days) | KD, equilibrium dissociation constant (KD = Kd Ka^−1) [3] | Ka, association rate constant ([3]; PBS pH 7.4, room temperature) | Mean fluorescence intensity (MFI) of HMGB1 (HMGB1 [4]) | HMGB1 level in medium (HMGB1 [5]) | Decrease of MFI of CD31 (CD31) | HMGB1 released into the medium of U87MG cells (HMGB1 [6]) | Number of cells, % of the original count [7] | TUNEL MFI [8] | Decrease of cellular internalization in the presence of Lf (U87MG cells) |
| --- | --- | --- | --- | --- | --- | --- | --- | --- | --- | --- | --- | --- | --- |
| lactoferrin (protein, UniProt P02788 20-710, looked up) Lactotransferrin: GRRRSVQWCAVSQPEATKCFQWQRNMRKVRGPPVSCIKRDSPIQCIQAIAENRADAVTLDGGFIYEAGLAPYKLRPVAAEVYGTERQPRTHYYAVAVVKKGGSFQLNELQGLKSCHTGLRRTAGWNVPIGTLRPFLNWTGPPEPIEAAVARFFSASCVPGADKGQFPNLCRLCAGTGENKCAFSSQEPYFSYSGAFKCLRDGAGDVAFIRESTVFEDLSDEAERDEYELLCPDNTRKPVDKFKDCHLARVPSHAVVARSVNGKEDAIWNLLRQAQEKFGKDKSPKFQLFGSPSGQKDLLFKDSAIGFSRVPPRIDSGLYLGSGYFTAIQNLRKSEEEVAARRARVVWCAVGEQELRKCNQWSGLSEGSVTCSSASTTEDCIALVLKGEADAMSLDGGYVYTAGKCGLVPVLAENYKSQQSSDPDPNCVDRPVEGYLAVAVVRRSDTSLTWNSVKGKKSCHTAVDRTAGWNIPMGLLFNQTGSCKFDEYFSQSCAPGSDPRSNLCALCIGDEQGENKCVPNSNERYYGYTGAFRCLAENAGDVAFVKDVTVLQNTDGNNNEAWAKDLKLADFALLCLDGKRKPVTEARSCHLAMAPNHAVVSRMDKVERLKQVLLHQQAKFGRNGSDCPDKFCLFQSETKNLLFNDNTECLARLHGKTTYEKYLGPQYVAGITNLKKCSTSPLLEACEFLRK | 29.7 ± 3.3 | 8.2 ± 2.9% | 25% | 5 days | 165 ± 3 nM | (8.1±0.1)·10^4 M^-1s^-1 | 7.9 ± 1.4 | 177.3 ± 3.6 ng/mL | ~2 fold | 114 ± 3.4 ng/mL | 69.6 ± 5.7% | 9.4 ± 1.6 |  |
| Lf-GL-FITC: FITC-tagged Lf-GL for cellular uptake studies (conjugate, UniProt P02788 20-710, looked up, FITC label; GL conjugate, FITC-tagged Lf-GL for cellular uptake studies) Lactotransferrin: GRRRSVQWCAVSQPEATKCFQWQRNMRKVRGPPVSCIKRDSPIQCIQAIAENRADAVTLDGGFIYEAGLAPYKLRPVAAEVYGTERQPRTHYYAVAVVKKGGSFQLNELQGLKSCHTGLRRTAGWNVPIGTLRPFLNWTGPPEPIEAAVARFFSASCVPGADKGQFPNLCRLCAGTGENKCAFSSQEPYFSYSGAFKCLRDGAGDVAFIRESTVFEDLSDEAERDEYELLCPDNTRKPVDKFKDCHLARVPSHAVVARSVNGKEDAIWNLLRQAQEKFGKDKSPKFQLFGSPSGQKDLLFKDSAIGFSRVPPRIDSGLYLGSGYFTAIQNLRKSEEEVAARRARVVWCAVGEQELRKCNQWSGLSEGSVTCSSASTTEDCIALVLKGEADAMSLDGGYVYTAGKCGLVPVLAENYKSQQSSDPDPNCVDRPVEGYLAVAVVRRSDTSLTWNSVKGKKSCHTAVDRTAGWNIPMGLLFNQTGSCKFDEYFSQSCAPGSDPRSNLCALCIGDEQGENKCVPNSNERYYGYTGAFRCLAENAGDVAFVKDVTVLQNTDGNNNEAWAKDLKLADFALLCLDGKRKPVTEARSCHLAMAPNHAVVSRMDKVERLKQVLLHQQAKFGRNGSDCPDKFCLFQSETKNLLFNDNTECLARLHGKTTYEKYLGPQYVAGITNLKKCSTSPLLEACEFLRK |  |  |  |  |  |  |  |  |  |  |  |  | about 17% |
